These results are taken from article PMC3810769 (Molecular Biology of the Cell, 2013).

Where two headings read alike, the source gives them in different places.

Experiment [1] addresses T1, nebulette SH3 domain fused to glutathione S-transferase (human (by the printed UniProt entry …, UniProt O76041 954-1014)).
T1 sequence (looked up): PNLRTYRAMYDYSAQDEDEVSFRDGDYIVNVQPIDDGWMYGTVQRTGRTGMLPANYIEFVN
In words: peptide or protein array.

Experiment [2] deals with T2, nebulette SH3 domain (residues 955-1014) (human (by the printed UniProt entry …, UniProt O76041 955-1014)).
T2 sequence (looked up): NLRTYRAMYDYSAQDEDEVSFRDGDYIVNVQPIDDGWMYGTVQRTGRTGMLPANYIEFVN
In words: ITC.

Experiment [3] deals with T3, nebulin SH3 domain (UniProt P20929 8466-8525).
T3 sequence (looked up): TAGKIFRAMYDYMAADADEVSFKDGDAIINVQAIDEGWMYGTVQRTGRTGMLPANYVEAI
The experiment in a line: ITC. A general note: In ITC the heat of successive injections is recorded.

For experiment [4], the target named is T3, nebulin SH3 domain. The experiment in a line: ITC. This is another data set of the same source.

B1: XIRP2 PR6 peptide GVLPPPTLPKPK (peptide)
peptide: GVLPPPTLPKPK
With B1, in experiment [1], the binding result is listed as “binds”.

B2: synthetic 13-mer XIRP2 peptide PPPTLPKPKLPKH (peptide)
peptide: PPPTLPKPKLPKH
As to B2, in experiment [2], binding was put at a Kd of 12.9 µM, the dH was -8.46 kcal/mol and the “stoichiometry N” value came to 1.12. Moreover, in experiment [3], binding was put at a Kd of 9.61 µM, the dH was -9.43 kcal/mol and the “stoichiometry N” value came out at 1.02. Further, binding in experiment [4] was put at a Kd of 9.3 µM.

The Kd is the constant that tells how readily two partners part at equilibrium. High values mean a looser complex, low ones a tighter complex. As a reminder, the stoichiometry N is a count of units in the complex or per binding partner.
